Reference: patent US20190144559A1 (Daiichi Sankyo, published 2019)
Where a chain is given by its changes, count along the chain named.

T1: Recombinant Human TROP-2 Fc chimera (human, UniProt P09758 27-274, limits assumed)
T1 construct: Used as the analyte in Biacore; also called antigen (Recombinant Human TROP-2 Fc chimera); not shown: Fc part and any linker of the chimera are not described
T1 sequence (looked up): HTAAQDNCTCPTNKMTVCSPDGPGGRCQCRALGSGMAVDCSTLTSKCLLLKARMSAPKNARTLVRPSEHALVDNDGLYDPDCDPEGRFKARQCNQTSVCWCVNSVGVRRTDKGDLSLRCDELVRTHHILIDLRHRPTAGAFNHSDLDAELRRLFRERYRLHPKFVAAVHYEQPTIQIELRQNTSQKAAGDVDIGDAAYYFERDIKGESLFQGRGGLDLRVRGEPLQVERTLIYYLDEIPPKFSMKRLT

B1: hTINA1-H2L1 (antibody, human IgG1, kappa)
heavy: not shown
light: DIQMTQSPSSLSASVGDRVTITCKASQDVSTAVAWYQQKPGKAPKLLIYSASYRYTGVPSRFSGSGSGTDFTLTISSLQPEDFAVYYCQQHYITPLTFGQGTKLEIKRTVAAPSVFIFPPSDEQLKSGTASVVCLLNNFYPREAKVQWKVDNALQSGNSQESVTEQDSKDSTYSLSSTLTLSKADYEKHKVYACEVTHQGLSSPVTKSFNRGEC
notes: Human IgG1/kappa; also called hTINA1 antibody
B2: hTINA1-H3L3 (antibody, human IgG1, kappa, V domains shown)
VH: QIQLVQSGAEVKKPGESVKVSCKASGYTFTTAGMQWVQQMPGKGLEWMGWINTHSGVPKYAEDFKGRVTFSLDTSTSTAYLQLSSLKSEDTAVYYCARSGFGSSYWYFDVWGQGTLVTVSS
VL: DIVMTQSPSSLSASVGDRVTITCKASQDVSTAVAWYQQKPGKQPKLLIYSASYRYTGVPSRFSGSGSGTDFTLTISSLQPEDFAVYYCQQHYITPLTFGQGTKLEIKR
notes: as for B1
B3: hTINA1-H1L1 (antibody, human IgG1, kappa, V domains shown)
VH: B2 VH with I2V, E16A, Q38R, M40A, K43Q, F70I, L72A
VL: B2 VL with V3Q, Q43A
notes: Human IgG1/kappa; also called hTINA1 antibody; humanized TINA1
B4: hTINA1-H2L2 (antibody, human IgG1, kappa)
heavy: not shown
light: B1 light with Q3V
notes: as for B1
B5: cTINA1 antibody (antibody, human IgG1, V domains shown)
VH: QIQLVQSGPELKKPGETVRISCKASGYTFTTAGMQWVQKMPGKGLKWIGWINTHSGVPKYAEDFKGRFAFSLETSASTAYLQISNLKNEDTTTYFCARSGFGSSYWYFDVWGAGTAVTVSS
VL: DIVMTQSHKFMSTSVGDRVSITCKASQDVSTAVAWYQQKPGQSPKLLIYSASYRYTGVPDRFTGSGSGTAFTFTISSVQAEDLAVYYCQQHYITPLTFGAGTKLELKR
notes: Mouse TINA1 variable regions on human IgG1/kappa constant regions; also called human chimeric TINA1 antibody; chimeric TINA1
B6: hRS7 antibody (antibody, V domains shown)
VH: QVQLQQSGSELKKPGASVKVSCKASGYTFTNYGMNWVKQAPGQGLKWMGWINTYTGEPTYTDDFKGRFAFSLDTSVSTAYLQISSLKADDTAVYFCARGGFGSSYWYFDVWGQGSLVTVSS
VL: B2 VL with V3Q, M4L, T20S, T31I, Q43A, S60D, Q100A, L104V

What follows are binders tested against T1, Recombinant Human TROP-2 Fc chimera (assay: SPR Biacore 3000, antibody from culture supernatant captured on anti-human IgG (Fab), antigen as analyte, bivalent model).

B1 and B2 are within 1.5-fold of each other in Kd: 69 nM for the first, 58 nM for the second.

B3 and B4 are within 1.5-fold of each other in Kd: 63 nM for the first, 71 nM for the second.

Binder B5 has a Kd of 56 nM.

These binders were tested against T1, Recombinant Human TROP-2 Fc chimera (assay: SPR Biacore 3000, purified antibody captured on anti-human IgG (Fab), antigen as analyte, bivalent model).

Compared with B1, B2 is 2-fold lower in Kd: 30 nM for the first, 15 nM for the second.

B3 and B4 are the same in Kd: 27 nM for the first, 27 nM for the second.

Work on B6 yielded a Kd of 0.3 nM.
